From the supplement of paper PMC9112550, “Optimization of the antimicrobial peptide Bac7 by deep mutational scanning” (BMC Biology, 2022)

System: Escherichia coli TOP10
Assay: shrunken log2 fold change of peptide-encoding DNA abundance (4.5 h post-induction vs induction); higher = less antimicrobial activity (less host growth inhibition)
Conditions: time post-induction: 4.5 h; library: site-saturation at positions 5, 18, 19, 20
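Note: peptides expressed intracellularly from a pBAD plasmid library in pooled LB shake-flask culture, induced with 0.3% L-arabinose, DNA abundance read by NGS, three biological replicates, DESeq2 with apeglm shrinkage.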

RRIRYRPPRLPRPRPRPGRDPRP
shrunken log2 fold change: -0.204

RRIRYRPPRLPRPRPRPGRGPRP
shrunken log2 fold change: 0.254

RRIRYRPPRLPRPRPRPGSMPRP
shrunken log2 fold change: -0.182

RRIRYRPPRLPRPRPRPGTYPRP
shrunken log2 fold change: -0.0385

RRIRYRPPRLPRPRPRPGVPPRP
shrunken log2 fold change: 0.241

RRIRYRPPRLPRPRPRPGWFPRP
shrunken log2 fold change: -0.112

RRIRYRPPRLPRPRPRPGWLPRP
shrunken log2 fold change: 0.0173

RRIRYRPPRLPRPRPRPGYRPRP
shrunken log2 fold change: -0.46

RRIRYRPPRLPRPRPRPHAEPRP
shrunken log2 fold change: -0.144

RRIRYRPPRLPRPRPRPHAHPRP
shrunken log2 fold change: -0.479

RRIRYRPPRLPRPRPRPHCCPRP
shrunken log2 fold change: -0.0599

RRIRYRPPRLPRPRPRPHDEPRP
shrunken log2 fold change: -0.0568

RRIRYRPPRLPRPRPRPHDIPRP
shrunken log2 fold change: -0.00174

RRIRYRPPRLPRPRPRPHGFPRP
shrunken log2 fold change: 0.0238

RRIRYRPPRLPRPRPRPHGKPRP
shrunken log2 fold change: 0.0161

RRIRYRPPRLPRPRPRPHGTPRP
shrunken log2 fold change: -0.209

RRIRYRPPRLPRPRPRPHHFPRP
shrunken log2 fold change: -0.288

RRIRYRPPRLPRPRPRPHHKPRP
shrunken log2 fold change: -0.319

RRIRYRPPRLPRPRPRPHHVPRP
shrunken log2 fold change: -0.00992

RRIRYRPPRLPRPRPRPHICPRP
shrunken log2 fold change: -0.0358

RRIRYRPPRLPRPRPRPHIEPRP
shrunken log2 fold change: -1.47

RRIRYRPPRLPRPRPRPHILPRP
shrunken log2 fold change: -0.288

RRIRYRPPRLPRPRPRPHLFPRP
shrunken log2 fold change: -0.313

RRIRYRPPRLPRPRPRPHMWPRP
shrunken log2 fold change: -0.621

RRIRYRPPRLPRPRPRPHQNPRP
shrunken log2 fold change: -0.527

RRIRYRPPRLPRPRPRPHRQPRP
shrunken log2 fold change: -0.0423

RRIRYRPPRLPRPRPRPHSLPRP
shrunken log2 fold change: -0.184

RRIRYRPPRLPRPRPRPHSMPRP
shrunken log2 fold change: -0.0542

RRIRYRPPRLPRPRPRPHSVPRP
shrunken log2 fold change: -0.07

RRIRYRPPRLPRPRPRPHWLPRP
shrunken log2 fold change: -0.0432

RRIRYRPPRLPRPRPRPHWQPRP
shrunken log2 fold change: -0.0696

RRIRYRPPRLPRPRPRPHWRPRP
shrunken log2 fold change: -0.0836

RRIRYRPPRLPRPRPRPIAWPRP
shrunken log2 fold change: -0.0381

RRIRYRPPRLPRPRPRPICIPRP
shrunken log2 fold change: -0.08

RRIRYRPPRLPRPRPRPICSPRP
shrunken log2 fold change: 0.0329

RRIRYRPPRLPRPRPRPICVPRP
shrunken log2 fold change: -0.293

RRIRYRPPRLPRPRPRPIEDPRP
shrunken log2 fold change: -0.274

RRIRYRPPRLPRPRPRPIGNPRP
shrunken log2 fold change: 0.167

RRIRYRPPRLPRPRPRPIICPRP
shrunken log2 fold change: -0.185

RRIRYRPPRLPRPRPRPIIEPRP
shrunken log2 fold change: -0.643

RRIRYRPPRLPRPRPRPIITPRP
shrunken log2 fold change: -0.667

RRIRYRPPRLPRPRPRPIKQPRP
shrunken log2 fold change: -0.0386

RRIRYRPPRLPRPRPRPIMHPRP
shrunken log2 fold change: -0.483

RRIRYRPPRLPRPRPRPIMSPRP
shrunken log2 fold change: -0.114

RRIRYRPPRLPRPRPRPIPNPRP
shrunken log2 fold change: -0.336

RRIRYRPPRLPRPRPRPIPVPRP
shrunken log2 fold change: -0.0888

RRIRYRPPRLPRPRPRPISHPRP
shrunken log2 fold change: -0.675

RRIRYRPPRLPRPRPRPIVNPRP
shrunken log2 fold change: -0.558

RRIRYRPPRLPRPRPRPIWCPRP
shrunken log2 fold change: -0.268

RRIRYRPPRLPRPRPRPIWIPRP
shrunken log2 fold change: -0.0319

RRIRYRPPRLPRPRPRPKCLPRP
shrunken log2 fold change: -0.245

RRIRYRPPRLPRPRPRPKDCPRP
shrunken log2 fold change: -0.494

RRIRYRPPRLPRPRPRPKDIPRP
shrunken log2 fold change: -0.109

RRIRYRPPRLPRPRPRPKDPPRP
shrunken log2 fold change: -0.236

RRIRYRPPRLPRPRPRPKDTPRP
shrunken log2 fold change: -0.392

RRIRYRPPRLPRPRPRPKELPRP
shrunken log2 fold change: -0.0199

RRIRYRPPRLPRPRPRPKEVPRP
shrunken log2 fold change: 0.0274

RRIRYRPPRLPRPRPRPKFKPRP
shrunken log2 fold change: -0.319

RRIRYRPPRLPRPRPRPKFYPRP
shrunken log2 fold change: 0.0354

RRIRYRPPRLPRPRPRPKHYPRP
shrunken log2 fold change: -0.895

RRIRYRPPRLPRPRPRPKIWPRP
shrunken log2 fold change: -0.475

RRIRYRPPRLPRPRPRPKKEPRP
shrunken log2 fold change: -0.00181

RRIRYRPPRLPRPRPRPKLHPRP
shrunken log2 fold change: -0.431

RRIRYRPPRLPRPRPRPKMDPRP
shrunken log2 fold change: 0.0399

RRIRYRPPRLPRPRPRPKPVPRP
shrunken log2 fold change: 0.218

RRIRYRPPRLPRPRPRPKRAPRP
shrunken log2 fold change: 0.28

RRIRYRPPRLPRPRPRPKRMPRP
shrunken log2 fold change: -0.207

RRIRYRPPRLPRPRPRPKSFPRP
shrunken log2 fold change: -0.0139

RRIRYRPPRLPRPRPRPKVPPRP
shrunken log2 fold change: 0.0215

RRIRYRPPRLPRPRPRPKYAPRP
shrunken log2 fold change: -0.532

RRIRYRPPRLPRPRPRPKYCPRP
shrunken log2 fold change: 0.0325

RRIRYRPPRLPRPRPRPLAGPRP
shrunken log2 fold change: 0.0192

RRIRYRPPRLPRPRPRPLCEPRP
shrunken log2 fold change: -0.238

RRIRYRPPRLPRPRPRPLDFPRP
shrunken log2 fold change: -0.269

RRIRYRPPRLPRPRPRPLDTPRP
shrunken log2 fold change: -0.429

RRIRYRPPRLPRPRPRPLGNPRP
shrunken log2 fold change: 0.0523

RRIRYRPPRLPRPRPRPLGQPRP
shrunken log2 fold change: -0.261

RRIRYRPPRLPRPRPRPLHQPRP
shrunken log2 fold change: -0.608

RRIRYRPPRLPRPRPRPLHSPRP
shrunken log2 fold change: -0.803

RRIRYRPPRLPRPRPRPLIPPRP
shrunken log2 fold change: -0.671

RRIRYRPPRLPRPRPRPLISPRP
shrunken log2 fold change: -0.596

RRIRYRPPRLPRPRPRPLKGPRP
shrunken log2 fold change: -0.00142

RRIRYRPPRLPRPRPRPLLHPRP
shrunken log2 fold change: -0.541

RRIRYRPPRLPRPRPRPLNEPRP
shrunken log2 fold change: -0.0438

RRIRYRPPRLPRPRPRPLPAPRP
shrunken log2 fold change: -0.165

RRIRYRPPRLPRPRPRPLPKPRP
shrunken log2 fold change: 0.116

RRIRYRPPRLPRPRPRPLQKPRP
shrunken log2 fold change: -0.0364

RRIRYRPPRLPRPRPRPLQLPRP
shrunken log2 fold change: -1.13

RRIRYRPPRLPRPRPRPLSDPRP
shrunken log2 fold change: -0.108

RRIRYRPPRLPRPRPRPLSNPRP
shrunken log2 fold change: -0.233

RRIRYRPPRLPRPRPRPLSRPRP
shrunken log2 fold change: -0.155

RRIRYRPPRLPRPRPRPLSVPRP
shrunken log2 fold change: -0.576

RRIRYRPPRLPRPRPRPLSWPRP
shrunken log2 fold change: -0.0279

RRIRYRPPRLPRPRPRPLSYPRP
shrunken log2 fold change: -0.273

RRIRYRPPRLPRPRPRPLTKPRP
shrunken log2 fold change: -0.281

RRIRYRPPRLPRPRPRPLVDPRP
shrunken log2 fold change: -0.289

RRIRYRPPRLPRPRPRPLWIPRP
shrunken log2 fold change: -0.103

RRIRYRPPRLPRPRPRPLYDPRP
shrunken log2 fold change: -0.51

RRIRYRPPRLPRPRPRPLYKPRP
shrunken log2 fold change: -0.229

RRIRYRPPRLPRPRPRPLYRPRP
shrunken log2 fold change: -0.335

RRIRYRPPRLPRPRPRPMCDPRP
shrunken log2 fold change: -0.987

RRIRYRPPRLPRPRPRPMDHPRP
shrunken log2 fold change: -0.237

RRIRYRPPRLPRPRPRPMDNPRP
shrunken log2 fold change: -0.0386

RRIRYRPPRLPRPRPRPMDWPRP
shrunken log2 fold change: 0.0155

RRIRYRPPRLPRPRPRPMEDPRP
shrunken log2 fold change: -0.0944

RRIRYRPPRLPRPRPRPMFLPRP
shrunken log2 fold change: -0.377

RRIRYRPPRLPRPRPRPMFRPRP
shrunken log2 fold change: -0.296

RRIRYRPPRLPRPRPRPMFSPRP
shrunken log2 fold change: -1.07

RRIRYRPPRLPRPRPRPMFVPRP
shrunken log2 fold change: -0.228

RRIRYRPPRLPRPRPRPMFYPRP
shrunken log2 fold change: -1.04

RRIRYRPPRLPRPRPRPMGAPRP
shrunken log2 fold change: -0.207

RRIRYRPPRLPRPRPRPMGMPRP
shrunken log2 fold change: -0.188

RRIRYRPPRLPRPRPRPMHAPRP
shrunken log2 fold change: 0.495

RRIRYRPPRLPRPRPRPMIHPRP
shrunken log2 fold change: -0.0658

RRIRYRPPRLPRPRPRPMKCPRP
shrunken log2 fold change: -0.905

RRIRYRPPRLPRPRPRPMLQPRP
shrunken log2 fold change: -0.229

RRIRYRPPRLPRPRPRPMMPPRP
shrunken log2 fold change: -0.0554

RRIRYRPPRLPRPRPRPMPKPRP
shrunken log2 fold change: -0.0102

RRIRYRPPRLPRPRPRPMRIPRP
shrunken log2 fold change: 0.0121

RRIRYRPPRLPRPRPRPMRPPRP
shrunken log2 fold change: 0.512

RRIRYRPPRLPRPRPRPMRQPRP
shrunken log2 fold change: -0.0148

RRIRYRPPRLPRPRPRPMRYPRP
shrunken log2 fold change: -0.114

RRIRYRPPRLPRPRPRPMVFPRP
shrunken log2 fold change: -0.00776

RRIRYRPPRLPRPRPRPMVMPRP
shrunken log2 fold change: -0.0337

RRIRYRPPRLPRPRPRPMVNPRP
shrunken log2 fold change: -0.0376

RRIRYRPPRLPRPRPRPMVYPRP
shrunken log2 fold change: -0.00783

RRIRYRPPRLPRPRPRPMYEPRP
shrunken log2 fold change: -0.101

RRIRYRPPRLPRPRPRPMYLPRP
shrunken log2 fold change: -0.0959

RRIRYRPPRLPRPRPRPMYTPRP
shrunken log2 fold change: -0.597

RRIRYRPPRLPRPRPRPMYWPRP
shrunken log2 fold change: -0.451

RRIRYRPPRLPRPRPRPNDSPRP
shrunken log2 fold change: -0.349

RRIRYRPPRLPRPRPRPNENPRP
shrunken log2 fold change: -0.744

RRIRYRPPRLPRPRPRPNFGPRP
shrunken log2 fold change: -0.126

RRIRYRPPRLPRPRPRPNFTPRP
shrunken log2 fold change: -0.348

RRIRYRPPRLPRPRPRPNGVPRP
shrunken log2 fold change: 0.0238

RRIRYRPPRLPRPRPRPNLNPRP
shrunken log2 fold change: -0.393

RRIRYRPPRLPRPRPRPNMIPRP
shrunken log2 fold change: -1.34

RRIRYRPPRLPRPRPRPNMRPRP
shrunken log2 fold change: 0.117

RRIRYRPPRLPRPRPRPNNAPRP
shrunken log2 fold change: -1.1

RRIRYRPPRLPRPRPRPNPFPRP
shrunken log2 fold change: -0.0444

RRIRYRPPRLPRPRPRPNPYPRP
shrunken log2 fold change: -0.0428

RRIRYRPPRLPRPRPRPNQPPRP
shrunken log2 fold change: -0.0705

RRIRYRPPRLPRPRPRPNQRPRP
shrunken log2 fold change: -0.181

RRIRYRPPRLPRPRPRPNRDPRP
shrunken log2 fold change: -0.0959

RRIRYRPPRLPRPRPRPNRNPRP
shrunken log2 fold change: -1

RRIRYRPPRLPRPRPRPNSDPRP
shrunken log2 fold change: -0.233

RRIRYRPPRLPRPRPRPNSWPRP
shrunken log2 fold change: -0.0916

RRIRYRPPRLPRPRPRPNTAPRP
shrunken log2 fold change: -0.0149

RRIRYRPPRLPRPRPRPNVMPRP
shrunken log2 fold change: 0.0307

RRIRYRPPRLPRPRPRPNVNPRP
shrunken log2 fold change: -1.2
